Measurements as given in the nanobody polyreactivity screen of Harvey et al. (2022).

Assay: yeast display, Sf9 membrane polyspecificity reagent, FACS + sequencing; frameworks hold sequencing errors
How it was run: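 Polyreactivity labels are assigned by the sorting gate from which each nanobody was recovered. The gates were low and high (top ~1%), set on anti-HA fluorescence for expression and streptavidin fluorescence for reagent binding. Before sorting, galactose-induced (36–48 hours) yeast display cells were stained for 1 hour at 4 °C with 10% biotinylated, detergent-solubilized Sf9 membrane reagent.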

Sequence	polyreactivity (PSR sort gate)
QVHLVESGGGLVQAGGSLRLSCAASGFIFISNSMGCYRQEPGKERELVARISDTDRTHYADSVKGRFTISRDNAKNTVYLQMNSQNPEDTAVYSCATDQSLLDKVYYDVQYDFWGQGTQVTVSS	low polyreactivity
QVHLVESGGGLVQAGGSLRLSCAASGFIFSYYAMGWYRQAPGKERELVAAISWTGGSTYYADSVKGRFTISRDNAKNTVYLQMNSLKPEDTAVYYCNKYYRAWLLWDYGYWGQGTQVTVSS	high polyreactivity
QVHLVESGGGLVQAGGSLRLSCAASGFIFVRNAMGWYSQAPGKEREFVAAITRSGGSTYYADSVKVRFTISRDNAKNTVYLQMYSLKPEDTAVYYCAVLYHSRDSYTYRDEDYWGQGTQVTVSS	low polyreactivity
QVHLVESGGGLVQAGGSLRLSCAASGFIFYPYAMGWYRQAPGKERELVAAITSSGGSTYYADSVKGRFTISRDNAKNTVYLQMNSLKPEDTAVYYCAAYTSYYGTIIAYRYYYWGQGTQVTVSS	high polyreactivity
QVHLVESGGGLVQAGGSLRLSCAASGFNFLIYAMGWYRQAPGKERELVAAITLRGSGTYYADSVKGRFTISRDNAKNTVYLQMNSLKPEDTAVYDCAAGTARRTYDYWGQGTQVTVSS	low polyreactivity
QVHLVESGGGLVQAGGSLRLSCAASGFTFDFYAMGWYRQAPGKERELVAAISKNDGTTYYADSVKGRFTISRDNAKNTVYLQLNSLKPEDTAVYYCAAESGYPVYTYVSSGDYWGQGTQVTVSS	low polyreactivity
QVHLVESGGGLVQAGGSLRLSCAASGFTFPHYAMGWYRQAPGKERELVAAISFSGGRTYYADSVKGRFTISRDHSKNTVYVQMNSLKPEDTAVYYCNVPYYSFRELSYYYWGQGTQVTVSS	high polyreactivity
QVHLVESGGGLVQAGGSLRLSCAASGFTFSFYAMGWYRQAPWKEIEFVAAITNSGGSTYYADSVKGRFTISRDNSKNSVYLQMNSLKPEDTAVYYCATKRAWPGYFTYYYWGQGTQVTVSS	high polyreactivity
QVHLVESGGGLVQAGGSLRLSCAASGFTFVQYAMGWYRQAPGKERELVATISKSGGITYYADSVKGRFTISRDNAKNTVYLQMNSLKPEDTSVYYCAAAWYYSSRGFHATWGHDYWGQGTQVTVSS	low polyreactivity
QVHLVESGGGLVQAGGSLRLSCAASGFTFVRYAMGWYRQAPGKERELVASISYSGGSTYYADSVKGRFTISRDNAKNTVYVQMNSLKPEATAVYYCAAVIYRGYYYWGQGTQVTVSS	high polyreactivity
QVHLVESGGGLVQAGGSLRLSCAASGFTFYQYAMGWYRQAPGKERELVAAITASGGSTYYADSVKRRFTISRDNAKNTVYLQMNSLKPEDTAVYYCAAERYFVLYRYYSYAYYYWGQGTQVTVSS	high polyreactivity
QVHLVESGGGLVQAGGSLRLSCAASGFTFYRYAMGWYRQAPGKDRELVAAITWSGGSTYYADSVKGRFTISRDNAKNTVYLQMNSLKPEDTAVYYCAADIYDGGFDYWGQGTQVTVSS	low polyreactivity
QVHLVESGGGLVQAGGSLRLSCAASGFTFYYYAMGWYRQAPGKERELVATISRSVGSTYYADSVKGRFTISRDNAKNTVYLQMNSLKPEDTAVYYCAVGGYLRSVSYIRLGNYYWGQGTQVSVSS	high polyreactivity
QVHLVESGGGLVQAGGSLRLSCAASGGNFRPNAMGWYRQAPGKERELVASITRGGSTNYADSVKGRFTISRDNAKNTVYLQMNSLKPEDTAVYYCSALLRYTRTLYYSWGQGTQVTVSS	high polyreactivity
QVHLVESGGGLVQAGGSLRLSCAASGGTFRVYAMGWYRQAPGKEWELVASISNGGSTNYADSEKGRFTISRDNAKNTVYLQMNSLKPEDTAVYYCAADPSYEVWYYDSPEYNYWGQGTQVTVSS	low polyreactivity
QVHLVESGGGLVQAGGSLRLSCAASGGTFYYNTMGWSRQAPGKERELVAAITSGTSTNYADSVKGRFTISRDNAKNTVYLQMNSRIQEDTAVFDCAADPDADDPRRGYDYWGQGTQVTVSS	low polyreactivity
QVHLVESGGGLVQAGGSLRLSCAASGIIFPWTAMGWYRQAPGKERELVAAITSRGSNTYYADSVKGRFTISRDNAKNTVYLQMNSLKPEDTAVYYCAVDSFYYGKYGYWGQGSQVTVSS	high polyreactivity
QVHLVESGGGLVQAGGSLRLSCAASGIIFYYNAMGWYRQAPGKERELVAVISSAGNTNYADSVKGRFTISRDNAKNTVYLQMNCLKPEDTAVYYCAAGTISRIDERNYFKMDYWGQGTQVTVSS	low polyreactivity
QVHLVESGGGLVQAGGSLRLSCAASGITFDEYTMGWYRQAPGKERELVAAIDSDGSTTYADSVKGRFTISRDNAKNTVYLQMNSLKPEDSAVYYCNAEHGDFSWHYLLYDYDYWGPGTQVTVSS	low polyreactivity
QVHLVESGGGLVQAGGSLRLSCAASGITFFWYTMGWYRQAPGKDRELVAAISESGGDTYYADSVKGRFTISRDNAKNTVYLQMKILKPEDTAVYYCAADDSYYGLDYWGQGTQVTVSS	low polyreactivity
QVHLVESGGGLVQAGGSLRLSCAASGITFKRYAMGWYRQAPGKERELVAAISDIGGRTYYADSVKGRFTISRDNAKNTVYLQMNSLKPEDTAGYFCAADYYSPVDWYYYWGQGTQVTVSS	high polyreactivity
QVHLVESGGGLVQAGGSLRLSCAASGITFNSNAMGWYRQAPGKERELVAAITVSGGNTYYADSVKGRFTISRDNAKNTVYLQMYSLKPEDTAVYYCNTASDVSWYVHYYYWRQGTQVTVSS	low polyreactivity

Sequence	polyreactivity (PSR sort gate)
QVHLVESGGGLVQAGGSLRLSCAASGITFRTYALGGYRQAPGKERELVAAITRGDSTYYADSVKGRFTISRDNAKNTVYLQMNILKPEDTAVYYCNTETTDFRRYEYWGQGTQVTVSS	low polyreactivity
QVHLVESGGGLVQAGGSLRLSCAASGITFSKYEMGWYRQAPWKERELVAAITSTGSTYYADSVKGRFTISRDNAKNTVYLQMNSVKPEDTAVYYCAAERRVFYYCHKLTYWYDYWGQGTQVTVSS	low polyreactivity
QVHLVESGGGLVQAGGSLRLSCAASGITFSPYAMGWSRQAPGKERELVAAISSGSSTKYADSVKGRFTISRDNAKNTVYLQMNSLKPEDTAVYYCAARWFDGYAAYGYWGQGTEVTVSS	high polyreactivity
QVHLVESGGGLVQAGGSLRLSCAASGLIFAFYGMGWYRPAPGKERELVASIDKSGGSTYADSVKGRFTISRDNAKNTVYLQMNSLKPEDTAVSYCATNVGGGWAYEYWGQGTQVTVSS	low polyreactivity
QVHLVESGGGLVQAGGSLRLSCAASGLIFLWNAMGWYRQAPGKERELVAAISWSGGSTYYADSVKGRFTISRDNAKNTVYLQMNSLKPEDTAVYYCIRLLSLEFGFWGQGTQVTVSS	high polyreactivity
QVHLVESGGGLVQAGGSLRLSCAASGLTFRYYAMGWYRPAPGKERELVAAISWSGGSTYYADSVKGRFTISRDNAKNTVYLQMNSQKPEDTAVYDCNTVGRSSSLSVFLIGYGYWGQATQVTVSS	high polyreactivity
QVHLVESGGGLVQAGGSLRLSCAASGLTFYGNAMGCYRQAPGKERELVAAISSSGGTTYYADSVKGRFTISRDNAKNTVYLQMNSLKPEDTAVYYCAARPSGGFESTRTRDYWGQGTQVTVSS	low polyreactivity
QVHLVESGGGLVQAGGSLRLSCAASGLTFYWYVMGWYRQAPGKERELVAVITGSGGSTYYADSVKGRFTISRDNAKNTVYLQMNSLKPEDTAAYYCARGGRYNRYYYWGQGTQVTVSS	high polyreactivity
QVHLVESGGGLVQAGGSLRLSCAASGNIFGLYAMGWYRQAPWKERELVAAISWRGGNTYYADYVKGRFTISRDNAKNTVYLQMNSLKPEDTAVYYCAAEAGYWYDYWGQGTQVTVSS	high polyreactivity
QVHLVESGGGLVQAGGSLRLSCAASGNIFYPNAMGWYRQAPGKERELVAAISSSGGSTYYADSVKGRFTISRDNAKNTVYLQMNSLKPEDTAVYYCNAYRQYRYDYWGQGTQVTVSS	low polyreactivity
QVHLVESGGGLVQAGGSLRLSCAASGNIIYWNGMGWYRKAPGKEREFVADITASGGSTYYADSVKGRFTISRDNAKNTVYLQMNSLIPEDTAVYYCAAQGVDSYYENDYWGQGTQVTVSS	high polyreactivity
QVHLVESGGGLVQAGGSLRLSCAASGRGYYALGWYRQAPGKERELVAAISRGGNTKYADSVKGRFTISRDNAKNSVYLQMNSLKPEDTAVYYCAAYAYSYELYYWGQGTQVTVSS	high polyreactivity
QVHLVESGGGLVQAGGSLRLSCAASGRIFARNAKGWYRQAPGKERELVATIRVGGGSTYYADSVKGRYTISRDNAKNTVYLQMNSLKPEDTAVYYCAVRQLYSYPGDRRGYYWGQGTQVTVSS	low polyreactivity
QVHLVESGGGLVQAGGSLRLSCAASGRIFDYYTMGWYRQAPGKERELVAAITWIGGSTYYEDSVKGRFTISRDNAKNTVYLQMNSLKPEDTAVYYCYAEGTALPYRADTVGGYYYWGQGTQVTVSS	low polyreactivity
QVHLVESGGGLVQAGGSLRLSCAASGRIFKKYAMGWYRQAPGKESELVATISSGGSTYYADSVKGRFTISRDNAKNTVYLQMNSLNPEDTAVYYCARREYVRRDYFVTTYDYWGQGTQVTVSS	low polyreactivity
QVHLVESGGGLVQAGGSLRLSCAASGRIFRQYAMGWYRQAPGKERELVAAISYSGGSTYYADSVKGRFTISRDYAKNTVYFQMNSLKPEDTAVYYCAATRWVPATGKFGYWGQGTQVTVSS	high polyreactivity
QVHLVESGGGLVQAGGSLRLSCAASGRIFTYYAMAWYRQAPGKEREMVAGITGSGASTYYADSVKGRFTISRDNAKNTVYLQMNSLKPEDTAVYYCNAPYVIRPFRGRYDYWGQGTQVTVSS	high polyreactivity
QVHLVESGGGLVQAGGSLRLSCAASGRIFYGYVMGWYRQAPGTEREFVAAITWSAGSTYYADSVKGRFTISRDNAKNTVYLQMNSLKPEDTALYYCADGGGHYQEYLMEDYWGQGTQVTVSS	high polyreactivity
QVHLVESGGGLVQAGGSLRLSCAASGRIMVHNAMGWYRQAPGKERELVAVITARGASTYYADSVKGRFTISRDNAKNTVYLQMNSLKPEDTAVYYCATDKRPKYYNQYDYWGQGTQVTVSS	low polyreactivity
QVHLVESGGGLVQAGGSLRLSCAASGRIRFNAMGWYRQAPGKERELVAAITSDGGRTYYADSVKGRFTISRDNAKNTVYLQMNSLKPEDTAVYYCNTDYILWGDYDYWGQGTQVTVSS	low polyreactivity
QVHLVESGGGLVQAGGSLRLSCAASGRLLVLNDMGWYRPEPGKVMELVADITSGGSTYYADSVKGRFTISRDNAKKTDYLQMNSLKPEDPAVYYCAADWNTYPDYQQSYFVSYEYNYWGQGTQVTVSS	low polyreactivity
